Columns and labels:
Human serum albumin [1] = target: T1, Human serum albumin (human, UniProt P02768 25-609); assay: ELISA; glycoprotein coated at 10 ng/mL, biotin-labeled lectin
T1 construct: Bought protein coated on the plate; also called HAS
Protocol: (§1) Serum glycoprotein (human serum albumin (CALBIOCHEM), Immunoglobulin G (Sigma), transferrin (Sigma), fibrinogen (AbD Serotec), Immunoglobulin A (BETYL) α2-macroglobulin (BMO), Immunoglobulin M (ROCKLAND), Complement C3 (CALBIOCHEM), haptoglobin (BIODESIGN), α1-acidic glycoprotein (Sigma), α-fetoprotein (Fitzgerald), α-fetoprotein L3 (Wako Pure Chemical Industries, Ltd) and prostate-specific antigen (Scipac) were dissolved in PBS at 1 mg/mL, and further diluted to 10 ng/mL with 0.1 M carbonate buffer (pH 9.5). Fifty μL of the diluted solution was added to a microtiter plate (Nunc 439454), and then incubated at 37° C. for 1 hour. After washed once with 0.05% Tween 20 (polyoxyethylene sorbitan monolaurate) (hereafter abbreviated as Tween)/PBS, 200 μL, of 1% bovine serum albumin (BSA)/PBS was added to the wells, and then incubated at 37° C. for 1 hour. The plate was washed twice with 0.05% Tween/PBS.
(§2) Fifty μL of the biotin labeled lectin solution prepared to 1 μg/mL with 1% BSA/0.05% Tween/PBS was added to the wells, and then left at room temperature for 1 hour. After washed twice with 0.05% Tween/PBS, 50 μL of the HRP labeled streptavidin solution (1 μg/mL) diluted with 1% BSA/0.05% Tween/PBS was added to the wells, and then left at room temperature for 30 minutes. After washed three times with 0.05% Tween/PBS, 50 μL of the HRP chromogenic substrate (product name: TMB Peroxidase substrate system, KPL) was added, and then left at room temperature for 5 minutes.
(§3) The absorbance values at 450 nm were subtracted by the absorbance value from the well on the plate in which no glycoprotein was immobilized, and the resulting values were taken as reaction values. Affinity was ranked by classifying the reaction values according to the following criteria.

[2] = target: T2, Haptoglobin from human serum (human, UniProt P00738 19-406, limits assumed, N-linked and O-linked glycans containing almost no fucose); assay: as above
T2 construct: Natural haptoglobin is processed into α and β chains; also called Haptoglobin (HP); Serum HP
T2 sequence (looked up): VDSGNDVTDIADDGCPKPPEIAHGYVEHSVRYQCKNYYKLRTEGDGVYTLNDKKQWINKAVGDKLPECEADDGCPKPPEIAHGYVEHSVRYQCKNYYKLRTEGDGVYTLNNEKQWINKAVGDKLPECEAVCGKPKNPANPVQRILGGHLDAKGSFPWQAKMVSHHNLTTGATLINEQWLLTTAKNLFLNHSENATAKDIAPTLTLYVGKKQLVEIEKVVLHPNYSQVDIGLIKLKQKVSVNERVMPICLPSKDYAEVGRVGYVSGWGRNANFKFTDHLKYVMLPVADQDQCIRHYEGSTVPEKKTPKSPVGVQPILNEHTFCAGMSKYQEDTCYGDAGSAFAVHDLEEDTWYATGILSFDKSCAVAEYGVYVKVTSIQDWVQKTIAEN
Protocol: as §1, §2, §3

Fibrinogen = target: T3, Fibrinogen; assay: ELISA; coated glycoprotein, biotin-labeled lectin 1 µg/mL; grade of A450 reaction value (Low 0.1 to 0.2, Moderate 0.2 to 0.5, High 0.5 or more)
T3 construct: Bought protein coated on the plate; also called FB
Protocol: as §1, §2, §3

Immunoglobulin A = target: T4, Immunoglobulin A; assay: as above
T4 construct: Serum glycoprotein coated on the plate; also called IgA
Protocol: as §1, §2, §3

Immunoglobulin G = target: T5, Immunoglobulin G; assay: as above
T5 construct: Serum glycoprotein coated on the plate; also called IgG
Protocol: as §1, §2, §3

Human serum albumin [3] = target: T1, Human serum albumin; assay: as above
Protocol: as §1, §2, §3

α1-Acid glycoprotein = target: T6, α1-Acid glycoprotein; assay: as above
T6 construct: Bought protein coated on the plate; also called AGP; α1-acidic glycoprotein
Protocol: as §1, §2, §3

α2-Macroglobulin = target: T7, α2-Macroglobulin; assay: as above
T7 construct: Bought protein coated on the plate; also called α2MG
T7 sequence (P01023 24-1474, species assumed, looked up): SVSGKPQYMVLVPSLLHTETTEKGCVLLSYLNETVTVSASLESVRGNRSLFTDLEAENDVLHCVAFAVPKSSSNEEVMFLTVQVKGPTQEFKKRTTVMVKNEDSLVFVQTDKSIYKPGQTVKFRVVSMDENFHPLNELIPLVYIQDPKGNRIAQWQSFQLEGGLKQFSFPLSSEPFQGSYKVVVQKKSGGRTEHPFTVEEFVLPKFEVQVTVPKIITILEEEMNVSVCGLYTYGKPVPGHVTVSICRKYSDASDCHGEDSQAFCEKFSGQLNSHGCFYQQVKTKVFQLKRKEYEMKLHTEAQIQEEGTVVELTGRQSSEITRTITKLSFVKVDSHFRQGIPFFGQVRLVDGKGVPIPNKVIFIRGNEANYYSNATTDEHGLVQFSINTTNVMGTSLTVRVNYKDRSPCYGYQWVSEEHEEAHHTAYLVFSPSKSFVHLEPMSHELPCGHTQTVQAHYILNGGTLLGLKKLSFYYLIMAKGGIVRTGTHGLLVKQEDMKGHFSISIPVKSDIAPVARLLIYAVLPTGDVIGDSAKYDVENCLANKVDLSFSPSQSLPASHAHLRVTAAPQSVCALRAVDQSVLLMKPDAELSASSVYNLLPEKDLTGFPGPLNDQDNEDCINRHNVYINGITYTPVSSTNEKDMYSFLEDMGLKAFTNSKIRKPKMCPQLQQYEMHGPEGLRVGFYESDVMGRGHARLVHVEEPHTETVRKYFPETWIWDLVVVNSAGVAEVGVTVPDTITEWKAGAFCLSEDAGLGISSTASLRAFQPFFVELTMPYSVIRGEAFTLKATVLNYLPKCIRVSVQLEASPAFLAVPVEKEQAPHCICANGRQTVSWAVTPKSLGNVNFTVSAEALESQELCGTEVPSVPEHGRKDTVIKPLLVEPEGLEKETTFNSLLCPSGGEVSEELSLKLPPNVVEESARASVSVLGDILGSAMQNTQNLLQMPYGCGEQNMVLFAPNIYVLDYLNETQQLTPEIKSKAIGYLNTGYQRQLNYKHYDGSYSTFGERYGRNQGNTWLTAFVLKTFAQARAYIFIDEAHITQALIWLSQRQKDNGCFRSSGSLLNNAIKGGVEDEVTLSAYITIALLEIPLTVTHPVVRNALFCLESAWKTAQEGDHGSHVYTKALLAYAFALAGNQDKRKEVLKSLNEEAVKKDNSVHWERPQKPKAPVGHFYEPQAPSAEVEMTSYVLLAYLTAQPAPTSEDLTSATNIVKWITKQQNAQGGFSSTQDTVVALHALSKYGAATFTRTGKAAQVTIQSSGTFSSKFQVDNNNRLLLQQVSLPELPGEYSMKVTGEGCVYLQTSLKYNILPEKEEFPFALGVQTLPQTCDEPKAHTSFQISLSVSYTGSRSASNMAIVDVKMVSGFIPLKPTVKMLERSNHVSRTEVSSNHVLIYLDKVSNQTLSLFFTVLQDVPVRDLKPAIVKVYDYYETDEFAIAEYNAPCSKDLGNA
Protocol: as §1, §2, §3

[4] = target: T2, Haptoglobin from human serum; assay: as above
Protocol: as §1, §2, §3

Immunoglobulin M = target: T8, Immunoglobulin M; assay: as above
T8 construct: Serum glycoprotein coated on the plate; also called IgM
Protocol: as §1, §2, §3

Complement C3 = target: T9, Complement C3; assay: as above
T9 construct: Bought protein coated on the plate
Protocol: as §1, §2, §3

Transferrin = target: T10, Transferrin; assay: as above
T10 construct: Bought protein coated on the plate; also called TF
Protocol: as §1, §2, §3

T1 sequence (P02768 25-609 limits assumed): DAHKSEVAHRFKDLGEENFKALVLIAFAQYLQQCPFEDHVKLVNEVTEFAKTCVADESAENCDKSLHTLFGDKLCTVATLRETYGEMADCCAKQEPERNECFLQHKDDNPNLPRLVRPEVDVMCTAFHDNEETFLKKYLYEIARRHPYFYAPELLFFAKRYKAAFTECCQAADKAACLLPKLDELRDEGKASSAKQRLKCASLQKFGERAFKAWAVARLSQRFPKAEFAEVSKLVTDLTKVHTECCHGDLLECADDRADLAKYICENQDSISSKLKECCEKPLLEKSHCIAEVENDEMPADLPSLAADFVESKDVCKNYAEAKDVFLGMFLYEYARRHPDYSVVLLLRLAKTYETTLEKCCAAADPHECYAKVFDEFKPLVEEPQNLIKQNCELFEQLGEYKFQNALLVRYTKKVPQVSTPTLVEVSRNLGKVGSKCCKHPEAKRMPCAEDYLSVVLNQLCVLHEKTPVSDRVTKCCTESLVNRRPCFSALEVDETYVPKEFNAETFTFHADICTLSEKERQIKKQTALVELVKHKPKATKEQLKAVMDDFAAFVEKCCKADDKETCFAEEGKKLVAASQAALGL
T9 sequence (P01024 23-667, chain 1 of 2): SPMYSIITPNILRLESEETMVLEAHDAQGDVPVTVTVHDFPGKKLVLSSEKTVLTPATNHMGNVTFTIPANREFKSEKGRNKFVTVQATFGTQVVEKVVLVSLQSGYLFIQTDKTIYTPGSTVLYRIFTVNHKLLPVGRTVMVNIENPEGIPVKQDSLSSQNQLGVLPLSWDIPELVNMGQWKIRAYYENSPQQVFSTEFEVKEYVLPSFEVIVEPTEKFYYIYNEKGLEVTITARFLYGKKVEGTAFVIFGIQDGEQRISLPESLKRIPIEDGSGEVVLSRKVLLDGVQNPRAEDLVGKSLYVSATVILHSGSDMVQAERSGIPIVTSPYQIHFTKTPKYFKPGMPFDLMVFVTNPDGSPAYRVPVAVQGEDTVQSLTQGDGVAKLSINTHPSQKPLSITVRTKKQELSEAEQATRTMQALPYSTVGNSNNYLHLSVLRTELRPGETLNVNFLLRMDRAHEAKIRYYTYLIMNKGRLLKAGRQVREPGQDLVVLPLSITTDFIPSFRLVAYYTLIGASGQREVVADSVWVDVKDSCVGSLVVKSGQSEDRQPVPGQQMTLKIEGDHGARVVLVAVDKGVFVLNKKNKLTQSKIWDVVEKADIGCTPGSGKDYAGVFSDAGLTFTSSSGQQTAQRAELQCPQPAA
T9 sequence (P01024 672-1663, chain 2 of 2): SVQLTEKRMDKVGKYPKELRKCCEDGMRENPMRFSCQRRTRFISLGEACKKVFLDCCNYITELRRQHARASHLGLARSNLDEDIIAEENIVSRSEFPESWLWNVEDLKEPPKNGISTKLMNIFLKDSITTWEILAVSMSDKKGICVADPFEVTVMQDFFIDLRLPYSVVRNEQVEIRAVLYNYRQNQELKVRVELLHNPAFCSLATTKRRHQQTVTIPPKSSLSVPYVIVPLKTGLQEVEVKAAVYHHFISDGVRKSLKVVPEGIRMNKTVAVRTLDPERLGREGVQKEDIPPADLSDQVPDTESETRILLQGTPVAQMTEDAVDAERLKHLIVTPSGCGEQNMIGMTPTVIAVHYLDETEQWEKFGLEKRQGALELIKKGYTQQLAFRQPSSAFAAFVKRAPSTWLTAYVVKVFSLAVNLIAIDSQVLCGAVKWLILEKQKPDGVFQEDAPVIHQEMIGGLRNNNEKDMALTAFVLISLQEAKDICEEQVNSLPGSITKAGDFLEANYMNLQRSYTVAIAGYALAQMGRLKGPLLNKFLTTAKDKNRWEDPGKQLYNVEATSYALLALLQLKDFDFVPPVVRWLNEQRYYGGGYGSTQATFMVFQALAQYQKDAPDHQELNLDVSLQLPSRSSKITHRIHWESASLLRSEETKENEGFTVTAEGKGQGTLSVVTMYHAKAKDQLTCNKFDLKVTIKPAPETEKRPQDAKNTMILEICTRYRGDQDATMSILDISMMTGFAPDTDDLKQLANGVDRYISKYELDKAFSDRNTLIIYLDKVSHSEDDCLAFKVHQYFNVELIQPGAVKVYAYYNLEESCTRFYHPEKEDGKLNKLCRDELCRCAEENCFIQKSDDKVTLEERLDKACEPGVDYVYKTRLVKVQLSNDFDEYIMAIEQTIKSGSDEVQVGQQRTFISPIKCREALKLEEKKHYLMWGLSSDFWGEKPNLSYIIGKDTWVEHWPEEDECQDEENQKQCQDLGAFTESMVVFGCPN
T10 sequence (P02787 20-698): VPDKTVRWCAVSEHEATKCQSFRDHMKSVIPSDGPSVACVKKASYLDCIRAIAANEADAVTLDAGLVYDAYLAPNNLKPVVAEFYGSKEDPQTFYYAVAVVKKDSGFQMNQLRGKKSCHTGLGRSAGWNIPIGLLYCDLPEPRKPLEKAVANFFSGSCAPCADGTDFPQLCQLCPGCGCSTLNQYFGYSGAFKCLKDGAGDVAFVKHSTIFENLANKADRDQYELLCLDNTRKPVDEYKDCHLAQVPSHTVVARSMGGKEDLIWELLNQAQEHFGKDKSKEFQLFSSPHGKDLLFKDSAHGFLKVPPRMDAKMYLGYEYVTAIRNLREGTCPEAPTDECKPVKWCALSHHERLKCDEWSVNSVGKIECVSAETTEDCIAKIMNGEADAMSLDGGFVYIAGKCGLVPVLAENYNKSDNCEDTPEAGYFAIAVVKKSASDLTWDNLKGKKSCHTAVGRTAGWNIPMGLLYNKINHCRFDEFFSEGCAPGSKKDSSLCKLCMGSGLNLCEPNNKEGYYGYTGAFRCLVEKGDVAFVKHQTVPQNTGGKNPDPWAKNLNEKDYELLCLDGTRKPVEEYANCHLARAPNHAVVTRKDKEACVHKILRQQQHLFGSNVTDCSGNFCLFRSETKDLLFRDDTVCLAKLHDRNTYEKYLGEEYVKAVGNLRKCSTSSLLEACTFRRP
T6 sequence (P02763 19-201): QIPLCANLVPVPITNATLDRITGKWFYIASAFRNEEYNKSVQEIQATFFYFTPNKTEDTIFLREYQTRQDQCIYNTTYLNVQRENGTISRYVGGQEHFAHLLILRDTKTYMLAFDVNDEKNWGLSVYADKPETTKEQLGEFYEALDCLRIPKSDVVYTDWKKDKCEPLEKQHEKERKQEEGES

Row | Binder | binding result (Human serum albumin [1]) | binding result [2] | reaction value (absorbance at 450 nm minus blank) (Fibrinogen) [od] | reaction value (absorbance at 450 nm minus blank) (Immunoglobulin A) [od] | reaction value (absorbance at 450 nm minus blank) (Immunoglobulin G) [od] | reaction value (absorbance at 450 nm minus blank) (Human serum albumin [3]) [od] | reaction value (absorbance at 450 nm minus blank) (α1-Acid glycoprotein) [od] | reaction value (absorbance at 450 nm minus blank) (α2-Macroglobulin) [od] | reaction value (absorbance at 450 nm minus blank) [4] [od] | reaction value (absorbance at 450 nm minus blank) (Immunoglobulin M) [od] | reaction value (absorbance at 450 nm minus blank) (Complement C3) [od] | reaction value (absorbance at 450 nm minus blank) (Transferrin) [od]
1 | Ulex europaeus lectin (other, UniProt P22972 1-243, looked up, biotin label (site not stated), Bought, biotin-labeled; also called UEA-I; UEA- 1) SDDLSFKFKNFSQNGKDLSFQGDASVIETGVLQLNKVGNNLPDETGGIARYIAPIHIWNCNTGEVASFITSFSFFMETSANPKAATDGLTFFLAPPDSPLRRAGGYFGLFEDTKDNDSSYQTVAVEFDTIGSPVNFDDPGFPHIGIDVNRVKSINAERWNKRYGLNNVANVEIIYEASSKTLTASLTYPSDQTSISVTSIVDLKEILPEWVSVGFSGGTYIGRQATHEVLNWYFTSNLINTNS | no binding | no binding |  |  |  |  |  |  |  |  |  | 
2 | Aleuria aurantia lectin (other, UniProt P18891 2-313, looked up, biotin label (site not stated), Bought, biotin-labeled; also called AAL) PTEFLYTSKIAAISWAATGGRQQRVYFQDLNGKIREAQRGGDNPWTGGSSQNVIGEAKLFSPLAAVTWKSAQGIQIRVYCVNKDNILSEFVYDGSKWITGQLGSVGVKVGSNSKLAALQWGGSESAPPNIRVYYQKSNGSGSSIHEYVWSGKWTAGASFGSTVPGTGIGATAIGPGRLRIYYQATDNKIREHCWDSNSWYVGGFSASASAGVSIAAISWGSTPNIRVYWQKGREELYEAAYGGSWNTPGQIKDASRPTPSLPDTFIAANSSGNIDISVFFQASGVSLQQWQWISGKGWSIGAVVPTGTPAGW |  |  | 0.1 to 0.2 | 0.2 to 0.5 | 0.1 to 0.2 | 0.1 to 0.2 | 0.2 to 0.5 | ≥ 0.5 | 0.1 to 0.2 | 0.2 to 0.5 | 0.1 to 0.2 | 0.1 to 0.2
3 | Lens culinaris lectin (other, biotin label (site not stated), Bought, biotin-labeled; The natural lectin is processed into alpha and beta chains; also called LCA) chain 1: TETTSFSITKFSPDQKNLIFQGDGYTTKGKLTLTKAVKSTVGRALYSTPIHIWDRDTGNVANFVTSFTFVIDAPSSYNVADEFTFFIAPVDTKPQTGGGYLGVFNSKEYDKTSQTVAVEFDTFYNAAWDPSNKERHIGIDVNSIKSVNTKSWNLQNGERANVVIAFNAATNVLTVTLTYP chain 2: VTSYTLNEVVPLKDVVPEWVRIGFSATTGAEFAAHEVHSWSFHSELGGTSSS | no binding |  |  |  |  |  |  |  |  |  |  | 

— patent US20120244563A1 (J OIL MILLS, published 2012)
